In publication PMC4188415 one finds Kd, fold difference in binding against KPNA1 without eVP24 and fold difference in binding against KPNA5 without eVP24 data, which are given here for 2 substances.

For orientation: Kd means the free concentration of one partner at which half of the binding sites on the other are occupied at equilibrium, for simple one-to-one binding. High values mean a looser complex, low ones a tighter complex.

What all share (assay): ITC
Assay [1] concerns the target ΔIBB-KPNA5 (66-509) (human).
The target in assay [2] is KPNA1 in a 1:1 complex with eVP24 (human | Ebola virus) (UniProt P52294).
Chain of UniProt P52294 (P52294 whole entry, chain 1 of 2): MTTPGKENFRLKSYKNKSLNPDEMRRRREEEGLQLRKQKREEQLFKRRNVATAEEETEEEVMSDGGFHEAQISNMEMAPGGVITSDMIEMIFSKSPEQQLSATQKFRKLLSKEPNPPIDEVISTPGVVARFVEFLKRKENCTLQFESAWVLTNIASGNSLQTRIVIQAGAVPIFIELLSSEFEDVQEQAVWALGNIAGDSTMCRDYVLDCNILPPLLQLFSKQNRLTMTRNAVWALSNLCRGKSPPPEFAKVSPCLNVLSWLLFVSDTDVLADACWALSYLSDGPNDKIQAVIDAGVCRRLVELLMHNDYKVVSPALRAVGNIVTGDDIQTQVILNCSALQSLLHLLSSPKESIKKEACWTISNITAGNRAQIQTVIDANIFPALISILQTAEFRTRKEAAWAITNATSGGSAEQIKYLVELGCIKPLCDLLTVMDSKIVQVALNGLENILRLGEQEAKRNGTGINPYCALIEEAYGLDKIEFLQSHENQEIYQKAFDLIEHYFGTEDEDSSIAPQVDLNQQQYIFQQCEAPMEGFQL
Chain of UniProt P52294 (Q05322 whole entry, chain 2 of 2, further chain): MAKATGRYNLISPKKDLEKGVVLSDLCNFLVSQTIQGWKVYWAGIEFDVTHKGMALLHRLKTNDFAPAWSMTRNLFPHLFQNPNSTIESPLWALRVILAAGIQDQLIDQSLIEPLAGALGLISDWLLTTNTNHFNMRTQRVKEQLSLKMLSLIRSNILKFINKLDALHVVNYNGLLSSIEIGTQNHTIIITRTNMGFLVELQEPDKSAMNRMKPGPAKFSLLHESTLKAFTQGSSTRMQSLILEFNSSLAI
Assay [3] has as its target KPNA5 in a 1:1 complex with eVP24 (competition ITC) (human | Ebola virus) (UniProt O15131).
Chain of UniProt O15131 (O15131 whole entry, chain 1 of 2): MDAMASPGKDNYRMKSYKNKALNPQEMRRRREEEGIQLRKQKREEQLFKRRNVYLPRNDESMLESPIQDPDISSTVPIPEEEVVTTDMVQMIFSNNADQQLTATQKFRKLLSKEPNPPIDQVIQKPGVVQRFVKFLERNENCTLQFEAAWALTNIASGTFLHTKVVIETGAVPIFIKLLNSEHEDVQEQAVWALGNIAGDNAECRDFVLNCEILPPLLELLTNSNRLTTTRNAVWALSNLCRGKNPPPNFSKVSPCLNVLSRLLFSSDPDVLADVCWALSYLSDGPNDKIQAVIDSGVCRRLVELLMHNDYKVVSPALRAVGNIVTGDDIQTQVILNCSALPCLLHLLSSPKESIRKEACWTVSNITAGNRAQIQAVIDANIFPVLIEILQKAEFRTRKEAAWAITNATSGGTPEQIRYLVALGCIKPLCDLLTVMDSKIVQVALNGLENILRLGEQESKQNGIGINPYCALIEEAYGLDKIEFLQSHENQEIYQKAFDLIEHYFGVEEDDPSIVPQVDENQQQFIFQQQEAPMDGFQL
Chain of UniProt O15131 (Q05322 whole entry, chain 2 of 2, further chain): as the sequence (Q05322 whole entry, chain 2 of 2, further chain) above

In the case of “MBP-tagged eVP24 (residues 11-237) (from UniProt Q05322 11-237) (domain or fragment)”, the dissociation constant Kd in assay [1] was 1 to 10 nM.

nucleoplasmin peptide (bipartite cNLS) gave a fold difference in binding against KPNA1 without eVP24 in assay [2] of 2 fold. The substance also had a fold difference in binding against KPNA5 without eVP24 in assay [3] of 2 fold.
